Data on 2 molecules can be found in paper PMC12304850, “Interfacing B‐DNA and DNA Mimic Foldamers”.

One data set addresses T1, SAP1 (UniProt P28324 1-93).
T1 sequence: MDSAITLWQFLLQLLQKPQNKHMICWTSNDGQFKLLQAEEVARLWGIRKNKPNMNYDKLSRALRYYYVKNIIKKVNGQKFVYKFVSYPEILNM
Nature of the data set: BLI; BLI on streptavidin biosensors; buffer with NaCl (concentration not in material), 0.01 mM EDTA, 0.05% Tween 20; pH and temperature not in material. Particulars: protein: recombinant, label: biotin.

In another data set the target is PU.1 (UniProt P17947 165-270). Described as above.

B1: 27 (dsDNA)
DNA 1: GACAGCATGTG
DNA 2: CACATGCTGTC
With B1, in the data set with SAP1 (duplex), the binding result is on record as “no binding”. In the data set with PU.1, the dissociation constant (Kd) worked out at 1600 nM.

B2: 26 (dsDNA)
DNA 1: GACAGGATGTG
DNA 2: CACATCCTGTC
Turning to B2, the Kd in the data set with SAP1 (11-bp duplex, hybridized on immobilized ssDNA) is 1080 ± 6 nM; with PU.1 it was 330 nM.
